The results in this text go back to patent US20120277164A1 (IMPERIAL INNOVATIONS, published 2012).

Read-outs that look alike come from different tables or passages of the source. Square brackets hold non-standard residues; d marks the D form. Ends that are not written are not given here. * marks the point of attachment. Fmoc = O=C(OCC1c2ccccc2-c2ccccc21)*; Cha = N[C@@H](CC1CCCCC1)C(=O)O; ClZ = O=C(OCc1ccccc1Cl)*; Cbz = O=C(OCc1ccccc1)*; Bz = O=C(c1ccccc1)*; Myr = myristyl

Experiment [1] addresses T1, Gadd45β/MKK7 complex (biotin-hGadd45β with coated GST-MKK7, ELISA format) (human) (UniProt O75293).
T1 sequence (biotinylated (sites not stated), looked up) 1: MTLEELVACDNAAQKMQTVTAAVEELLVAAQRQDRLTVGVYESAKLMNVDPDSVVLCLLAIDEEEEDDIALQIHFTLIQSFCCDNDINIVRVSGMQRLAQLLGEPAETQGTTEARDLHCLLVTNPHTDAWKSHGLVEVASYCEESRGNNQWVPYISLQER
T1 sequence (biotinylated (sites not stated), looked up) 2: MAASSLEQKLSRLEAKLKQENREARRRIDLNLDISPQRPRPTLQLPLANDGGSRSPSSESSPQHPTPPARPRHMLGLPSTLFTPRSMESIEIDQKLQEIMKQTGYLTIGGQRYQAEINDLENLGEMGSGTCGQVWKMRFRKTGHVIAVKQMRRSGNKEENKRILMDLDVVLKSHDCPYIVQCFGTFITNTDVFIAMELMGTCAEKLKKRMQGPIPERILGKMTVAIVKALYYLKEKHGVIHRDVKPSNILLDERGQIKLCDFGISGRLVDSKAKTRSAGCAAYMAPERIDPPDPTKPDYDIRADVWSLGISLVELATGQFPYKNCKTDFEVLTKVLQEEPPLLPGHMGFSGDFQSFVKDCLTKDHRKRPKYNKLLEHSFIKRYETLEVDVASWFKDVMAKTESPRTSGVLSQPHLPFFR
Kind of experiment: competition ELISA; coated GST-MKK7 42 nM, biotin-hGadd45β 21 nM.

The target in experiment [2] is T2, Gadd45β/MKK7 complex (biotin-hGadd45β with coated GST-MKK7, ELISA format) (human, UniProt O75293 1-160; O14733 1-419, biotinylated (sites not given)).
T2 construct: not shown: glutathione S-transferase (GST) fusion partner
T2 sequence (looked up) 1: T1 sequence (biotinylated (sites not stated), looked up) 1
T2 sequence (looked up) 2: T1 sequence (biotinylated (sites not stated), looked up) 2
Kind of experiment: competition ELISA; coated GST-MKK7, biotin-hGadd45β; single dose. (An ELISA detects its analyte on a solid surface through an enzyme-linked reagent.)

The target of experiment [3] is T2, Gadd45β/MKK7 complex (biotin-hGadd45β …). The experiment is described as above. The source holds these as a separate data set.

Consider Cbz-Tyr-Asp-Phe-NH2, for which the 50% inhibitory concentration (IC50) (usually the point on the concentration scale where inhibition reaches its midpoint) in experiment [1] was found to be 0.162 nM.

The molecule H-YRY-NH2 (peptide) displayed an IC50 in experiment [1] of 0.75 nM. For Cbz-Tyr-Arg-Phe-NH2, the half-inhibitory concentration (IC50) in experiment [1] came out at 0.1 nM.

In experiment [1], H-YHF-NH2 (peptide) gave an IC50 of 0.645 nM. Turning to AC-Tyr-Met-Phe-NH2 (peptide), the IC50 in experiment [1] was greater than 10 nM. Same read-out and setting: then Ac-YRY-NH2 (peptide), with 0.758 nM; and Ac-[Cha]-Arg-Phe-NH2, with greater than 5 nM. The molecule Ac-Tyr-Asn-Phe-NH2 (peptide) showed an IC50 in experiment [1] of 1.9 nM. Same read-out and setting: then Ac-YHF-NH2 (peptide), with 0.69 nM; and Ac-YPF-NH2 (peptide), with 0.645 nM; and Ac-Tyr-Arg-[Cha], with greater than 5 nM. In the case of Ac-Tyr-Leu-Phe-NH2 (peptide), the half-maximal inhibitory concentration (IC50) in experiment [1] was 1.8 nM. With Z-Tyr-Glu-Phe-NH2 (mDTP2) (peptide), the IC50 in experiment [1] was 0.158 nM. In the case of Ac-Tyr-Gln-Phe-NH2 (peptide), in experiment [1], the half-maximal inhibitory concentration (IC50) is greater than 10 nM. On to Bz-YDHF-NH2 [Benzoic acid-YDHF-NH2], for which the “% Inhibition of Gadd45β-MKK7 binding” value in experiment [2] was 0%. As to Ac-[dY][dM][dR][dF]-NH2 (also: D/L configuration not given here) [Ac-Tyr-Met-Arg-Phe-NH2], the 50% inhibitory concentration (IC50) in experiment [1] is greater than 10 nM. Ac-[dY][dN][dR][dF]-NH2 (also: D/L configuration not given here) [Ac-Tyr-Asn-Arg-Phe-NH2] showed a 50% inhibitory concentration (IC50) in experiment [1] of 10 nM. Consider Cbz-[dY][dY][dE][dR][dF]-NH2 [Z-Tyr-Tyr-Glu-Arg-Phe-NH2], for which the half-maximal inhibitory concentration (IC50) in experiment [1] is greater than 5 nM. Cbz-[dY][dD][dH][dQ]-NH2 [Z-Tyr-Asp-His-Gln-NH2] came in with an IC50 in experiment [1] greater than 10 nM. On to Myr-YDHF-NH2 [Myr-YDHF-NH2], for which the “% Inhibition of Gadd45β-MKK7 binding” value in experiment [2] was 26%.

As for ClZ-YDHF-NH2 [2CI-Z-YDHF-NH2], the “% Inhibition of Gadd45β-MKK7 binding” value in experiment [2] amounted to 38%. For Ac-[dY][dQ][dR][dF]-NH2 (also: D/L configuration not given here) [Ac-Tyr-Gln-Arg-Phe-NH2], the IC50 in experiment [1] was found to be 5 nM. Take Fmoc-YDHF-NH2 [Fmoc-YDHF-NH2]: in experiment [2], the “% Inhibition of Gadd45β-MKK7 binding” value was 58%. The molecule Cbz-[dY][dY][dD][dH][dQ]-NH2 [Z-Tyr-Tyr-Asp-His Gln-NH2] registered a half-inhibitory concentration (IC50) in experiment [1] greater than 10 nM. For the molecule Cbz-YDHF-NH2 (also called Z-LTP1) [Z-YDHF-NH2], the “% Inhibition of Gadd45β-MKK7 binding” value in experiment [2] is 84%. As for ClZ-YDHQ-NH2 [2CI-Z-YDHQ-NH2], the “% Inhibition of Gadd45β-MKK7 binding” value in experiment [2] worked out at 40%. For Ac-YERA-NH2 [Ac-YERA-NH2], the “% Inhibition of Gadd45β-MKK7 binding” value in experiment [2] came to 28%. As for Ac-WDHW-NH2 [Ac-WDHW-NH2], the “% Inhibition of Gadd45β-MKK7 binding” value in experiment [3] was 50%.

For the molecule Myr-YDHQ-NH2 [Myr-YDHQ-NH2], in experiment [2], the “% Inhibition of Gadd45β-MKK7 binding” value turned out to be 28%. For the molecule Ac-PERF-NH2 [Ac-PERF-NH2], the “% Inhibition of Gadd45β-MKK7 binding” value in experiment [2] was determined as 24%. ClZ-YERF-NH2 [2CI-Z-YERF-NH2]: in experiment [2], the “% Inhibition of Gadd45β-MKK7 binding” value is 38%. For Ac-WDRW-NH2 [Ac-WDRW-NH2], the “% Inhibition of Gadd45β-MKK7 binding” value in experiment [3] was determined as 93%. Take Ac-YERP-NH2 [Ac-YERP-NH2]: the “% Inhibition of Gadd45β-MKK7 binding” value in experiment [2] worked out at 0%. In the case of Bz-YERF-NH2 [Benzoic acid-YERF-NH2], the “% Inhibition of Gadd45β-MKK7 binding” value in experiment [2] stood at 24%. Myr-YERF-NH2 [Myr-YERF-NH2]: in experiment [2], the “% Inhibition of Gadd45β-MKK7 binding” value turned out to be 37%. On to Fmoc-YERF-NH2 [Fmoc-YERF-NH2], for which, in experiment [2], the “% Inhibition of Gadd45β-MKK7 binding” value is 60%. For Ac-WDRF-NH2 [Ac-WDRF-NH2], the “% Inhibition of Gadd45β-MKK7 binding” value in experiment [3] worked out at 46%. On to Cbz-YDHQ-NH2 [Z-YDHQ-NH2], for which the “% Inhibition of Gadd45β-MKK7 binding” value in experiment [2] stood at 13%. Take Ac-WDKW-NH2 [Ac-WDKW-NH2]: in experiment [3], the “% Inhibition of Gadd45β-MKK7 binding” value is 69%. As to Ac-YEPF-NH2 [Ac-YEPF-NH2], the “% Inhibition of Gadd45β-MKK7 binding” value in experiment [2] amounted to 13%.

Take Ac-YEAF-NH2 [Ac-YEAF-NH2]: the “% Inhibition of Gadd45β-MKK7 binding” value in experiment [2] came out at 13%.

Consider Ac-YPRF-NH2 [Ac-YPRF-NH2], for which, in experiment [2], the “% Inhibition of Gadd45β-MKK7 binding” value stood at 13%. Turning to {3‑OH‑4MeO‑benzoic acid}-YERF-NH2 [3-OH-4MeO-Benzoid acid-YERF-NH2], the “% Inhibition of Gadd45β-MKK7 binding” value in experiment [2] was 86%. Take Cbz-YERF-NH2 (also called Z-LTP2) [Z-YERF-NH2]: the “% Inhibition of Gadd45β-MKK7 binding” value in experiment [2] is 78%. For Ac-WDKF-NH2 [Ac-WDKF-NH2], in experiment [3], the “% Inhibition of Gadd45β-MKK7 binding” value came to 26%. On the same count and under the same terms, then Ac-WDHF-NH2 [Ac-WDHF-NH2], with 28%. For the molecule Ac-YARF-NH2 [Ac-YARF-NH2], the “% Inhibition of Gadd45β-MKK7 binding” value in experiment [2] was 17%. Same read-out and setting: the value for {3‑hydroxy‑4‑methoxybenzoyl}-YDHF-NH2 [3-OH-4MeO-Benzoid acid-YDHF-NH2] was 81%.

Turning to Ac-[dY][dY][dR][dF]-NH2 (also: D/L configuration not given here) [Ac-Tyr-Tyr-Arg-Phe-NH2], the 50% inhibitory concentration (IC50) in experiment [1] is greater than 5 nM. In the case of Cbz-YD(OMe)HF-NH2 [Z-YD(OMe)HF-NH2], the “% Inhibition of Gadd45β-MKK7 binding” value in experiment [2] is 84%. In turn, Ac-[dY][dL][dR][dF]-NH2 (also: D/L configuration not given here) [Ac-Tyr-Leu-Arg-Phe-NH2] showed an IC50 in experiment [1] of 5 nM.
